From US7632507B2, “Synovial cell protein” (St. Marianna University School of Medicine, priority 2000, dated 2009)

B1: GST-SL: GST fusion protein of Synoviolin ligand (SL), thought to be the same protein as S1-5 (protein)
chain: QDTEETITYTQCTDGYEWDPVRQQCKDIDECDIVPDACKGGMKCVNHYGGYLCLPKTAQIIVNNEQPQQETQPAEGTSGATTGVVAASSMATSGVLPGGGFVASAAAVAGPEMQTGRNNFVIRRNPADPQRIPSNPSHRIQCAAGYEQSEHNVCQDIDECTAGTHNCRADQVCINLRGSFACQCPPGYQKRGEQCVDIDECTIPPYCHQRCVNTPGSFYCQCSPGFQLAANNYTCVDINECDASNQCAQQCYNILGSFICQCNQGYELSSDRLNCEDIDECRTSSYLCQYQCVNEPGKFSCMCPQGYQVVRSRTCQDINECETTNECREDEMCWNYHGGFRCYPRNPCQDPYILTPENRCVCPVSNAMCRELPQSIVYKYMSIRSDRSVPSDIFQIQATTIYANTINTFRIKSGNENGEFYLRQTSPVSAMLVLVKSLSGPREHIVDLEMLTVSSIGTFRTSSVLRLTIIVGPFSF
modifications: left off: a dimerising Fc or GST
B2: GST-partial Synoviolin: GST fusion protein of a portion of Synoviolin (cDNA 1799 bp; SEQ ID NO: 1, No. 1233-3031) expressed in E. coli (protein)
chain: PPVPPPPSSGEAVAPPSTSAAALSRPSGAATTTAAGTSATAASATASGPGSGSAPEAGPAPGFPFPPPWMGMPLPPPFAFPPMPVPPAGFAGLTPEELRALEGHERQHLEARLQSLRNIHTLLDAAMLQINQYLTVLASLGPPRPATSVNSTEGTATTVVAAASSTSIPSSEATTPTPGASPPAPEMERPPAPESVGTEEMPEDGEPDAAELRRRRLQKLESPVAH
modifications: left off: a dimerising Fc or GST

Tests used:
[35S]HA-Synoviolin-HAHA = biological target: T1, [35S]HA-Synoviolin-HAHA (Homo sapiens, UniProt Q86TM6); assay: Binding of Synoviolin to SL on nylon membrane with [35S]-labeled probe; details: protein transferred to nylon membrane, 2 hours at room temperature
T1 construct: Expression of Full-Length Synoviolin Recombinant Protein in E. coli; made in house; host or cells: cell-free in vitro translation (TNT-coupled Translation System, Promega) from pcDNA3-HA-synoviolin-HAHA
Procedure: The SL cDNA was inserted into a pGEX vector in the same manner as in Example 3 to prepare GST-SL fusion protein, and the GST-SL (500 ng) was applied to 10% SDS-PAGE along with GST (1 μg) as a control. After SDS-PAGE, it was transferred to a nylon membrane by electroblotting. This nylon membrane was denatured for 1 hour at room temperature with 50 mM Tris-HCl (pH 8.0) containing 6M guanidine hydrochloride and 5 mM 2-mercaptoethanol, and regenerated overnight at 4° C. in 50 mM Tris-HCl (pH 8.0) containing 5 mM 2-mercaptoethanol and 0.05% Tween 20. The regenerated nylon membrane was treated with blocking buffer [10 mM Tris-HCl (pH 8.0), 5% skim milk, 0.1% Triton X-100, 150 mM NaCl, 1 mM EDTA, 5 mM MgCl2, 1 mM DTT, 5% glycerol, protease inhibitor (complete, Boehringer Mannheim)] and washed in blocking buffer (same as above, except for 0.5% skim milk). […] This nylon membrane was washed in 10 mM Tris-HCl (pH 8.0), 0.5% skim milk, 0.1% Triton X-100, 150 mM NaCl, 1 mM EDTA, 5 mM MgCl2, 1 mM DTT, and protease inhibitor (complete, Boehringer Mannheim), and its radioactivity was detected with an image analyzer (BAS2000, Fujix). […]

[1] = system: anti-synovial cell anti-serum; assay: Antibody absorption test in synovial tissue staining; assay type: binding, rabbit; details: 2.0 mg/mL added to anti-serum
Procedure: The staining of RA patient-derived synovial tissue was performed by fixing synovial tissue upon glass slides by the ordinary method. A sample subjected to 30-minute blocking with 1% BSA was allowed to undergo immune reaction for 60 minutes at room temperature with anti-synovial cell anti-serum diluted 100 times with 1% BSA. After reaction, the sample was washed with PBS and then allowed to undergo immune reaction using HRP-labeled anti-rabbit IgG antibodies as the secondary antibody. Confirmation of the antigen in the immune reaction with anti-synovial cell anti-serum was performed by the coloring of 3,3′-diaminobenzidine tetrahydrochloride based on HRP activity. In the same manner as in the aforementioned Western blotting, GST-partial Synoviolin fusion protein was used to perform an anti-synovial cell anti-serum absorption test with respect to synovial tissue staining. Tissue staining was performed by adding 2.0 mg/mL of GST-partial Synoviolin fusion protein or GST (2.0 mg/mL) to anti-synovial cell anti-serum.

[2] = system: anti-synovial cell anti-serum; assay: Antibody absorption experiment in Western blotting of cell lysates; assay type: binding, rabbit; details: RA patient-derived synovial cells, 2.0 mg/mL
Procedure: First, the various cells used as specimens were solubilized in 1% NP-40 to prepare cell lysates. Each of the cell lysates was treated with 25 mM Tris-HCl (pH 6.8), 0.25% sodium dodecyl sulfate (SDS), 0.05% mercaptoethanol and 0.1% glycerol, and then separated with 8% SDS polyacrylamide electrophoresis (SDS-PAGE). After SDS-PAGE, protein derived from the various cells was transferred to a nitrocellulose (NC) membrane by electroblotting. On this NC membrane, anti-synovial cell anti-serum was diluted 1000 times with Tris buffered saline (TBS) containing 2.0 mg/mL GST-partial Synoviolin fusion protein and 5% skim milk, and subjected to immune reaction for 60 minutes at room temperature. In addition, as negative controls, an experiment wherein the same antibody solution is reacted with the NC membrane, and an experiment wherein the GST-partial Synoviolin fusion protein in the antibody solution is replaced with GST alone were performed at the same time. After the reaction, the NC membrane was washed with 0.1% Tween 20/TBS, subjected to an immune reaction for 60 minutes at room temperature with horseradish peroxidase (HRP) labeled anti-rabbit IgG antibodies as the secondary antibodies, and washed with 0.1% Tween 20/TBS, and the target antigen was detected by detecting HRP activity. […]

[3] = system: RA patient-derived synovial cells; assay: MTT assay of synovial cell hyperplasia; assay type: cell-based, human; details: 1 μM, three days of culture, 10%-FCS/DMEM, 37° C., 5% CO2
Procedure: The RA patient-derived synovial cells prepared in Example 1 were used to prepare 96 well plates so that there were 5×10^3 cells/well, and GST or GST-partial Synoviolin was added to the cell supernatant so that the final concentration became 0.01 to 1 μM. After three days of culture, 3-(4,5-dimethyl-2-thiazolyl)-2,5-diphenyl-2H-tetrazolium bromide (MTT)/PBS was added to the cell supernatant, and it was cultured for 3 hours under conditions of 37° C. and 5% CO2. After culturing, the cell supernatant was removed, crystals of MTT formazan were dissolved with dimethyl sulfoxide, and absorbance measurement was performed (Journal of Immunological Methods, 65, 55, 1983).

[4] = system: anti-synovial cell anti-serum; assay: Antibody absorption in fluorescent immunostaining of synovial cells; assay type: binding, rabbit
Procedure: Immunostaining was performed by fixing synovial cells upon glass slides by the ordinary method, and immunostaining was performed using the anti-synovial cell anti-serum of Example 1. A sample subjected to 30-minute blocking with 1% bovine serum albumin (BSA) was allowed to undergo immune reaction for 60 minutes at room temperature with anti-synovial cell anti-serum diluted 100 times with 1% BSA. In addition, along with observation with anti-serum, experiments were also performed using anti-synovial cell antibodies purified from this anti-serum. Purified anti-synovial cell antibodies were prepared by immunoaffinity purification using GST-partial Synoviolin fusion protein as a ligand. The ligand used was a fusion protein expressed after the GST-fusion protein expression vector pGEX-5X-3 containing the 1799 bp synoviolin gene up to No. 1233-3031 of SEQ ID NO: 1 was transformed into BL21. A Glutathione Sepharose column was produced by the method of the Pharmacia Corp, to prepare a GST-partial syno-GS column. As a control for the case where purified anti-synovial cell antibodies were used, an anti-GST antibody obtained by the immunoaffinity purification of anti-serum in the same manner where GST was used as the ligand was used. […]

T1 sequence (Q86TM6 whole entry E545G): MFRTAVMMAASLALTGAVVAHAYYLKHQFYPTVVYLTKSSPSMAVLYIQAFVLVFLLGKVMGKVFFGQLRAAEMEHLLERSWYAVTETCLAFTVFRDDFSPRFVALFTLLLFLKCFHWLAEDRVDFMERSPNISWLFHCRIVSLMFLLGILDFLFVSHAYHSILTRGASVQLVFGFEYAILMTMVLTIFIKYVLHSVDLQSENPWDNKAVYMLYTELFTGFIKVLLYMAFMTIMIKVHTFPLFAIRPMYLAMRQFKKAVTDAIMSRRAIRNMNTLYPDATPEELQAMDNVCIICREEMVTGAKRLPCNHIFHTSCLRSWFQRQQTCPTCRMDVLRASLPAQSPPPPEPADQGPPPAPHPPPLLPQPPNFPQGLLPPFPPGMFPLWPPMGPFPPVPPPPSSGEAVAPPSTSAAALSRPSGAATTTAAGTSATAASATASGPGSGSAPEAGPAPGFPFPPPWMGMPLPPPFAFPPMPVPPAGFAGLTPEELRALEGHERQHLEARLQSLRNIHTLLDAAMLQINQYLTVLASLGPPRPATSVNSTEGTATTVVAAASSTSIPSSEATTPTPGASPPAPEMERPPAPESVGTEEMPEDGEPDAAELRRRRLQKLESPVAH

Row | Molecule | binding to [35S]HA-Synoviolin-HAHA ([35S]HA-Synoviolin-HAHA) | staining of synovial tissue with anti-synovial cell anti-serum [1] | immune reaction of anti-synovial cell anti-serum to the 220 kDa protein [2] | immune reaction of anti-synovial cell anti-serum to the approximately 140 kDa and approximately 185 kDa proteins [2] | RA patient-derived synovial cell hyperplasia [3] | immune reaction of anti-synovial cell anti-serum with RA patient-derived synovial cells [4]
1 | glutathione S-transferase [GST, reference compound] | not observed | – | – | – | – | –
2 | B1 | observed | – | – | – | – | –
3 | B2 | – | weakened | blocked | partially blocked | significantly suppressed | blocked
